B1: I-1066 (peptide)
peptide: Ac-[αAllylPro]D[tBuAla][B5(3)]DEAAFL[PyrS2″][Phe(2-Cl)][Bta]S-NH2
modifications: staple 1-4, 4-11; not fully specified; printed as Ac-PL3-Asp-Npg-B5-Asp-Glu-Ala-Ala-Phe-Leu-PyrS2-2C1F-BztA-Ser-NH2
B2: I-1065 (peptide)
peptide: Ac-[αAllylPro]D[tBuAla][B5(3)]DDAAFL[PyrS2″][Phe(2-Cl)][Bta]S-NH2
modifications: staple 1-4, 4-11; not fully specified; printed as Ac-PL3-Asp-Npg-B5-Asp-Asp-Ala-Ala-Phe-Leu-PyrS2-2C1F-BztA-Ser-NH2
B3: I-1064 (peptide)
peptide: Ac-[αAllylPro]D[tBuAla][B5(3)]DDAAFL[PyrS2][Phe(2-Cl)][Bta]S-NH2
modifications: staple 1-4, 4-11; not fully specified; printed as Ac-PL3-Asp-Npg-B5-Asp-Asp-Ala-Ala-Phe-Leu-PyrS2-2C1F-BztA-Ser-NH2
B4: I-2587 (peptide)
peptide: Ac-[αAllylPro]D[tBuAla][B5]D[Phe(3-COOH)]QAFL[SPip3][Phe(2-CF3)][Bta]A-NH2
modifications: staple 1-4, 4-11; not fully specified; printed as Ac-PL3-Asp-Npg-B5-Asp-3COOHF-Gln-Ala-Phe-Leu-SPip3-2F3MeF-BztA-Ala-NH2
B5: I-2586 (peptide)
peptide: Ac-[αAllylPro]D[tBuAla][B5]D[Phe(3-COOH)]QAFL[SPip2][Phe(2-CF3)][Bta]A-NH2
modifications: staple 1-4, 4-11; not fully specified; printed as Ac-PL3-Asp-Npg-B5-Asp-3COOHF-Gln-Ala-Phe-Leu-SPip2-2F3MeF-BztA-Ala-NH2; also: later-eluting staple isomer composition
B6: I-2591 (peptide)
peptide: Ac-[αAllylPro]D[tBuAla][B5]D[Phe(3-COOH)]QAFL[SPip1][3Thi][Bta]A-NH2
modifications: staple 1-4, 4-11; not fully specified; printed as Ac-PL3-Asp-Npg-B5-Asp-3COOHF-Gln-Ala-Phe-Leu-SPip1-3Thi-BztA-Ala-NH2

Starred links: 1 amine or outer side, 2 acyl side, 3 side chain; linkers in the order of their positions; H or OH if unused. Positions of bridges follow the written chain, without caps; N, C: chain ends. Non-standard residues stand in square brackets, D forms with d. Primed or numbered codes have the meaning given here. PyrS2″ = (S)-3-amino-1-((pent-4-en-1-yloxy)carbonyl)pyrrolidine-3-carboxylic acid (stapling residue), C=CCCCOC(=O)N1CC[C@@](N[*:1])(C(=O)[*:2])C1; B5(4) = 2,2-bis(4-pentenyl)glycine = 2-amino-2-(pent-4-en-1-yl)hept-6-enoic acid (stitching residue), C=CCCCC(CCCC=C)(N[*:1])C(=O)[*:2]; B5(5) = 2,2-bis(4-pentenyl)glycine, 2-amino-2-(pent-4-en-1-yl)hept-6-enoic acid (stitching residue), C=CCCCC(CCCC=C)(N[*:1])C(=O)[*:2]; PyrS2 = (S)-3-amino-1-((pent-4-en-1-yloxy)carbonyl)pyrrolidine-3-carboxylic acid, C=CCCCOC(=O)N1CC[C@@](N[*:1])(C(=O)[*:2])C1; SPip2 = 4-amino-1-((pent-4-en-1-yloxy)carbonyl)piperidine-4-carboxylic acid, C=CCCCOC(=O)N1CCC(N[*:1])(C(=O)[*:2])CC1; SPip3 = 4-amino-1-((hex-5-en-1-yloxy)carbonyl)piperidine-4-carboxylic acid, C=CCCCCOC(=O)N1CCC(N[*:1])(C(=O)[*:2])CC1; SPip1 = 4-amino-1-((but-3-en-1-yloxy)carbonyl)piperidine-4-carboxylic acid, C=CCCOC(=O)N1CCC(N[*:1])(C(=O)[*:2])CC1; B5(3) = 2,2-bis(4-pentenyl)glycine (stitching residue), C=CCCCC(CCCC=C)(N[*:1])C(=O)[*:2]; B5 = 2-amino-2-(pent-4-en-1-yl)hept-6-enoic acid, C=CCCCC(CCCC=C)(N[*:1])C(=O)[*:2]; Phe(3-COOH) = N[C@@H](Cc1cccc(C(=O)O)c1)C(=O)O; Phe(2-CF3) = N[C@@H](Cc1ccccc1C(F)(F)F)C(=O)O; Phe(2-Cl) = N[C@@H](Cc1ccccc1Cl)C(=O)O; Phe(2-F) = N[C@@H](Cc1ccccc1F)C(=O)O; Bta = N[C@@H](Cc1csc2ccccc12)C(=O)O; αAllylPro = C=CC[C@@]1(C(=O)O)CCCN1; tBuAla = CC(C)(C)C[C@H](N)C(=O)O; 3Thi = N[C@@H](Cc1ccsc1)C(=O)O

beta-catenin (Homo sapiens (Human)), sequence (P35222 whole entry): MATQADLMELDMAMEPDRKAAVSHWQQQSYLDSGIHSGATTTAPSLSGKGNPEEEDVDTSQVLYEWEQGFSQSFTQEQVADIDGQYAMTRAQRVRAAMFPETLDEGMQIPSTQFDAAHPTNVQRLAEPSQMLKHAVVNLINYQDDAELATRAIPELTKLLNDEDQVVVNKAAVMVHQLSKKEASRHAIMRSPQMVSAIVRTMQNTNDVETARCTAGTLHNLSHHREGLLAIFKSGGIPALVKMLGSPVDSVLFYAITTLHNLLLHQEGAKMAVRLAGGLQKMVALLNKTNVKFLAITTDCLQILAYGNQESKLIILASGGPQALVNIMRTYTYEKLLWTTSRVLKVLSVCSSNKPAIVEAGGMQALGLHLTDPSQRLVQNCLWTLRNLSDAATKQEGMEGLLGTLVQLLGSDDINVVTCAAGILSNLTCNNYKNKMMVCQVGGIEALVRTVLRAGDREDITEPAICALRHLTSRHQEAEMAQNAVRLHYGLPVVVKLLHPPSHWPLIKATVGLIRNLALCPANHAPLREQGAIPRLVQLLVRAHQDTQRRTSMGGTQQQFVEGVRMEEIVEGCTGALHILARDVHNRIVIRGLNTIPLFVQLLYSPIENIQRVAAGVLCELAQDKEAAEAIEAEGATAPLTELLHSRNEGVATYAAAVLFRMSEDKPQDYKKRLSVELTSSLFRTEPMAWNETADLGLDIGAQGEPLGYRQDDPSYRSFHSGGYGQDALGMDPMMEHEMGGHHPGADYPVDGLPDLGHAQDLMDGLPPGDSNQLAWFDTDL

The first assay deals with Bcat-Halo (UniProt P35222). Description: NanoBRET absolute IC50 in HEK293 cells; Bcat-Halo, competitor TCF4-Luc.
Bcat-Halo, sequence (P35222 whole entry): as above
On to Ac-[αAllylPro]D[tBuAla][B5(5)]DDAAFT[PyrS2″][Phe(2-F)][Bta]Q-NH2 (staple 1-4, 4-11) [I-1021], for which the half-inhibitory concentration (IC50) came out at 11500 nM.
On the same count and under the same terms, the result for Ac-[αAllylPro]D[tBuAla][B5(4)]DSAAFL[PyrS2″][3Thi][Bta]Q-NH2 (staple 1-4, 4-11) [I-1443] reads 9500 nM; that for Ac-[αAllylPro]D[tBuAla][B5(5)]DNAAFT[PyrS2″][Phe(2-F)][Bta]Q-NH2 (staple 1-4, 4-11) [I-1022], 13700 nM; that for Ac-[αAllylPro]D[tBuAla][B5(5)]DEAAFL[PyrS2″][3Thi][Bta]Q-NH2 (staple 1-4, 4-11) [I-1437], 7100 nM.

A further assay concerns the target full-length beta-Catenin (Uniprot ID P35222) (Homo sapiens (Human)) (UniProt P35222). Description: fluorescence polarization competition; full-length beta-catenin, competitor 5FAM-TCF4 10-53.
Target sequence in this assay (P35222 whole entry, one chain of several): as the sequence (P35222 whole entry) above
In turn, Ac-[αAllylPro]D[tBuAla][B5(5)]DDAAFT[PyrS2″][Phe(2-F)][Bta]Q-NH2 (staple 1-4, 4-11) [I-1021] returned an IC50 of 5 nM.
Regarding Ac-[αAllylPro]D[tBuAla][B5(5)]DNAAFT[PyrS2″][Phe(2-F)][Bta]Q-NH2 (staple 1-4, 4-11) [I-1022], the IC50 was determined as 33 nM.

A further assay shares this target. Description: fluorescence polarization competition; displaces 5FAM-TCF4(10-53) from full-length beta-catenin.
Target sequence in this assay (P35222 2-781 limits assumed): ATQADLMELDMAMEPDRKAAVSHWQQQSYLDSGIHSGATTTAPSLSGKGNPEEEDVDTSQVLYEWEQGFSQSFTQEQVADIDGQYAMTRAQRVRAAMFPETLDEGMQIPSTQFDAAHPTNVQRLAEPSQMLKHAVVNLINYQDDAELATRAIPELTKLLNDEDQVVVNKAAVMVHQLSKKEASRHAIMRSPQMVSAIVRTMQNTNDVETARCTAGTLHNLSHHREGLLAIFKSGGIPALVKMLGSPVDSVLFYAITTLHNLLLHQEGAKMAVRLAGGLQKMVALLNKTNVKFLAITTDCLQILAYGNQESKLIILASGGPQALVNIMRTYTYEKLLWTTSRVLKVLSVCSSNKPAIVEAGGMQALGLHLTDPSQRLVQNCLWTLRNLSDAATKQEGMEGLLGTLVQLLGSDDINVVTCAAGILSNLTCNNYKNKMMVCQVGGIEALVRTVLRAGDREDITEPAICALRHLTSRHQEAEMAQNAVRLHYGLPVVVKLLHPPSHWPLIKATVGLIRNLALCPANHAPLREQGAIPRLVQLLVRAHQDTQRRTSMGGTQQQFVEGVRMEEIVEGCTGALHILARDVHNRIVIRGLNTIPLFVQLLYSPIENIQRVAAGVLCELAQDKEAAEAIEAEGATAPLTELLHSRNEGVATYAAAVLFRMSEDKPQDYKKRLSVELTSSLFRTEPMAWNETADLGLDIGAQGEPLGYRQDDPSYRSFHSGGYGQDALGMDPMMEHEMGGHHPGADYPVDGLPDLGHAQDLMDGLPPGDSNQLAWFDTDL
Ac-[αAllylPro]D[tBuAla][B5(5)]DDAAFT[PyrS2″][Phe(2-F)][Bta]Q-NH2 (staple 1-4, 4-11) [I-1021] came in with an EC50 of 5 nM.
Ac-[αAllylPro]D[tBuAla][B5(5)]DNAAFT[PyrS2″][Phe(2-F)][Bta]Q-NH2 (staple 1-4, 4-11) [I-1022]: the EC50 turned out to be 33 nM.

For a further assay, the target named is Bcat-Halo (UniProt P35222). Description: NanoBRET Abs IC50, Bcat-Halo/TCF4-Luc in HEK293 cells.
Ac-[αAllylPro]D[tBuAla][B5(5)]DDAAFT[PyrS2″][Phe(2-F)][Bta]Q-NH2 (staple 1-4, 4-11) [I-1021] displayed an IC50 of 11500 nM.

In another assay the target is full-length beta-Catenin (Uniprot ID P35222) (Homo sapiens (Human)) (UniProt P35222). Description: fluorescence polarization competition; full-length beta-catenin with 5FAM-TCF4(10-53) probe, peptide titrated.
Target sequence in this assay (P35222 whole entry, one chain of several): as the sequence (P35222 whole entry) above
Consider B1, for which the IC50 is 789 nM.
Regarding Ac-[αAllylPro]D[tBuAla][B5(3)]DEAAFL[PyrS2][Phe(2-Cl)][Bta]Q-NH2 (staple 1-4, 4-11) [I-1063], the concentration for half-maximal inhibition (IC50) was determined as 471 nM.
Still for that read-out and setting: the result for B2 reads 520 nM; that for B3, 414 nM.

A further assay addresses beta-catenin (Homo sapiens (Human)) (UniProt P35222). Description: fluorescence polarization competition; full-length beta-catenin with 5FAM-TCF4(10-53) probe as competitor.
Ac-[αAllylPro]D[tBuAla][B5(4)]DSAAFL[PyrS2″][3Thi][Bta]Q-NH2 (staple 1-4, 4-11) [I-1443] gave a 50% effective concentration (EC50) of 24 nM.
With Ac-[αAllylPro]D[tBuAla][B5(5)]DEAAFL[PyrS2″][3Thi][Bta]Q-NH2 (staple 1-4, 4-11) [I-1437], the 50% effective concentration (EC50) was found to be 7 nM.

In a further assay the target is full-length beta-Catenin (Uniprot ID P35222) (Homo sapiens (Human)) (UniProt P35222). In words: fluorescence polarization competition; full-length beta-catenin, 5FAM-TCF4 10-53 probe as competitor.
Target sequence in this assay (P35222 whole entry, one chain of several): as the sequence (P35222 whole entry) above
In turn, B4 came in with an IC50 of 273 nM.
As to B5, the IC50 came out at 345 nM.
Molecule B6 gave an IC50 of 602 nM.

For a further assay the target is unchanged. In words: fluorescence polarization competition; full-length beta-catenin, competitor 5FAM-TCF4(10-53) probe.
Target sequence in this assay (P35222 whole entry, one chain of several): as the sequence (P35222 whole entry) above
The molecule B1 came in with an EC50 of 789 nM.
The molecule Ac-[αAllylPro]D[tBuAla][B5(4)]DSAAFL[PyrS2″][3Thi][Bta]Q-NH2 (staple 1-4, 4-11) [I-1443] gave a half-maximal inhibitory concentration (IC50) of 24 nM.
For Ac-[αAllylPro]D[tBuAla][B5(3)]DEAAFL[PyrS2][Phe(2-Cl)][Bta]Q-NH2 (staple 1-4, 4-11) [I-1063], the EC50 is 471 nM.
Take Ac-[αAllylPro]D[tBuAla][B5(5)]DEAAFL[PyrS2″][3Thi][Bta]Q-NH2 (staple 1-4, 4-11) [I-1437]: the half-maximal inhibitory concentration (IC50) stood at 7 nM.
B2 came in with an EC50 of 520 nM.
B3 came in with an EC50 of 414 nM.

The values above are taken from patent publication US20240116985A1, “STAPLED PEPTIDES AND METHODS THEREOF” (priority 2020, published 2024).
